Here are results for three molecules from article PMC11699347, “Heme regulates protein interactions and phosphorylation of BACH2 intrinsically disordered region in humoral response” (iScience, 2024).

One data set deals with T1, His-FLAG-TBK1 (mouse, UniProt Q9WUN2 1-729).
T1 construct: An HRV 3C protease site follows the N-terminal FLAG-8xHis tag; also called FLAG-His-TBK1; recombinant mouse His-FLAG-TBK1; source: Sf9 insect cells (baculovirus), purified (FLAG-M2 agarose, G-25 spin column); not shown: FLAG, N-terminal, kept; 8xHis, N-terminal, kept
T1 sequence (looked up): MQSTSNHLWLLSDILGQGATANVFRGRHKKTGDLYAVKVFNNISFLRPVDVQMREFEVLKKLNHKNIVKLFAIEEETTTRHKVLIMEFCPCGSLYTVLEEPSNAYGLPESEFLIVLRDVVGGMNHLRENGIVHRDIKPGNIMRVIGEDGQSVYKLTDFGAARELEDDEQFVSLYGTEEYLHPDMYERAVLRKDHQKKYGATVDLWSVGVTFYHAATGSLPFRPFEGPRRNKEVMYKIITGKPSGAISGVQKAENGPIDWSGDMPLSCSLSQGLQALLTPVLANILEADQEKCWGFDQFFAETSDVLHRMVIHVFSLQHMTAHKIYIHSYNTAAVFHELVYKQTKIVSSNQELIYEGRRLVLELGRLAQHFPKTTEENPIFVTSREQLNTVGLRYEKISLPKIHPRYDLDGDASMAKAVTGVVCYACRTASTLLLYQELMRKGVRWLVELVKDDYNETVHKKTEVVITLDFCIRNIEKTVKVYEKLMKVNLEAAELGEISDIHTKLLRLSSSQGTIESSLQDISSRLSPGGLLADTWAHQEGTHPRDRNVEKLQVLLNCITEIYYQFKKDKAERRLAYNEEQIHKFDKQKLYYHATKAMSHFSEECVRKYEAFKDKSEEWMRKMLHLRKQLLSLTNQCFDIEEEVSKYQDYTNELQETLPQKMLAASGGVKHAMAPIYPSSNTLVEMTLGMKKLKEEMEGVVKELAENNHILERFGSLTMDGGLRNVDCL
The data set can be described thus: pull-down; GST fusion on Glutathione Sepharose beads with purified His-FLAG-TBK1 or His-FLAG-DNMT1, with or without heme, 2 h at 4°C; 20 mM HEPES pH 7.0, 50 mM NaCl, 2 mM TCEP; immunoblot. Particulars: both partners purified. In general terms: A western blot detects proteins with antibodies after separation by electrophoresis.

Another data set has as its target GST-BACH2_331-839 (UniProt P97303 331-839). The data set can be described thus: EMSA; MafK presence not stated in the material; 32P-labeled ds probes, 30 min incubation, 4% polyacrylamide gel; buffer, salt, pH and temperature not stated. The conditions noted are these: protein: recombinant; tags: N-terminal GST; label: 32P 5' end (PNK). Background: A gel shift assay detects complexes by their altered migration in electrophoresis.

B1: GST-BACH2-381-481 (domain or fragment, mouse, UniProt P97303 381-481, looked up)
chain: KTDYTPLAGNYGQPHVGQKDVSNFAMGSPLRGPGPETLCKQEGELDRRSVIFSASACDQPNTPVHSYSAVSNLDKDLSEPVPKSLWVGAGQSLPSSQAYSH
notes: made by PCR from pGEX6P1-BACH2-IDR; Cloned into pGEX-6P-1; source: E. coli KRX, purified (Glutathione Sepharose 4B)
On to B1, for which, in the data set with His-FLAG-TBK1, the binding result is reported as “binds”.

B2: GST-BACH2-IDR (domain or fragment, mouse, UniProt P97303 331-520, looked up)
chain: SRSVSSPSCLRSLFGITKGVESTGLPSTSQQPLVRSSACPFNKGISQGDLKTDYTPLAGNYGQPHVGQKDVSNFAMGSPLRGPGPETLCKQEGELDRRSVIFSASACDQPNTPVHSYSAVSNLDKDLSEPVPKSLWVGAGQSLPSSQAYSHSGLMADHLPGRIRPNTSCPVPIKVCPRSPPLETRTRTSS
notes: BACH2, mouse, intrinsically disordered region, amino acid region 331-520; Plasmid pGEX6P1-BACH2-IDR; also called recombinant BACH2-331-520 with GST kept; source: E. coli KRX, purified (Glutathione Sepharose 4B)
On to B2, for which the binding result with His-FLAG-TBK1 is “binds”.

B3: Slc48a1-MARE (dsDNA)
DNA 1: GCACTCCACTTCTGACTCAGCATTTTGCAGCC
DNA 2: GGCTGCAAAATGCTGAGTCAGAAGTGGAGTGC
Regarding B3, the binding result in the data set with GST-BACH2_331-839 is recorded as “binds”.
